Assay results taken from article PMC7753147 (2020).

T1: Gephyrin E domain (gephE) (Rattus norvegicus, UniProt Q03555)
T1 chain: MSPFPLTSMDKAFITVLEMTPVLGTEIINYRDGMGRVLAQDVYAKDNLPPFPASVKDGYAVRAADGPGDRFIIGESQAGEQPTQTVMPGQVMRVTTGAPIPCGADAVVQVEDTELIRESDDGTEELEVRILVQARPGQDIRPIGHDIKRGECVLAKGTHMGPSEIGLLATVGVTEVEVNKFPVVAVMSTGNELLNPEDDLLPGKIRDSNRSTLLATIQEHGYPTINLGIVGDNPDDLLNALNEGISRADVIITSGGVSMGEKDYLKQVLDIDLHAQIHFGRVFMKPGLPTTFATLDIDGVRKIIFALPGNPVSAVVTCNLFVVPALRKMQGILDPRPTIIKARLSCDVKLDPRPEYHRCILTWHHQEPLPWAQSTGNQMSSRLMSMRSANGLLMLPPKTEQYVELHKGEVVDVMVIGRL

T2: gephyrin E domain (gephE), recombinant
T2 chain: T1 chain


Target: T1, Gephyrin E domain (gephE)

Point of comparison: DLRSNDFSIIGSLPR [GlyRβ_Full_Positional_Scan_183], EC50 107 µM. Against it:
- DLRSNDFSVVGSLPR [GlyRβ_Full_Positional_Scan_166] — 2.4-fold higher, 255 µM
- DLRSNDWSIVGSLPR [GlyRβ_Full_Positional_Scan_128] — 3.6-fold higher, 380 µM
- DLRSNDFSMVGSLPR [GlyRβ_Full_Positional_Scan_178] — 2.1-fold higher, 228 µM
- DLRSNDFSCVGSLPR [GlyRβ_Full_Positional_Scan_177] — within 1.5-fold, 118 µM
- DLRSNDYSIVGSLPR [GlyRβ_Full_Positional_Scan_129] — 21-fold higher, 2200 µM
- DLRSNDFSLVGSLPR [GlyRβ_Full_Positional_Scan_164] — 2.5-fold higher, 268 µM
- DLRSNDFTIVGSLPR [GlyRβ_Full_Positional_Scan_156] — 1.9-fold higher, 198 µM
- DLRSNDFGIVGSLPR [GlyRβ_Full_Positional_Scan_142] — 4.7-fold higher, 505 µM

Target: T2, gephyrin E domain (gephE), recombinant

In the case of DLRSNDFSIVGSLPR (C-terminal amide) [GlyR β-derived peptide 414DLRSNDFSIVGSLPR428, unmodified, in solution], the Ki is reported as 10 µM.
